Numbering of substitutions follows the chain as printed.
B1: KCD114 (antibody, V domains shown)
VH: EVQLQQSGPELVKPGASVKISCKASGYSFTAYYMNWVKQSPEKSLEWIGDINPSTGGTTYNQNFKAKATLTVDKSSSTAYMHLKSLTSEDSAVYYCATTYYSGNSYVGFAYWGQGTLVTVSA
VL: DIVMTQSHKFMSTSVGDRVSITCKASQDVSTAVAWYQQKPGQSPKLLIFWASTRHTGVPDRFTGSGSGTDYTLTISSVQAEDLALYYCQQHYSTPWTFGGGTKLEIK
B2: KCD070 (antibody, V domains shown)
VH: EIQLQQTGPELVKPGASVKISCKASGYSFTDYIILWVKQSHGKSLEWIGNINPYYDYTSYNLKFKGKATLTVDKSSSTAYMQLNSLTSEDSAVYYCARSDGYYGGDYWGQGTSVTVSS
VL: DIVMTQSHKFMSTSVGDRVSITCKASQDVGTAVAWYQQKPGQSPKLLIYWASTRHTGVPDRFTGSGSGTDFTLTINNVQSEDLADYFCQQYSSYPWTFGGGTTLEIK
B3: KCD008 (antibody, V domains shown)
VH: EVQLQQSGPELVKAGASVKMSCTASGFNIKDTYMHWVKQRPEQGLAWIGRIDPANGNIKYDPKFQGKATITADTSSNTAYLQLSSLTSDDTAVYYCTSAMDYWGQGTSVTVSS
VL: QIVLTQSPEIMSASPGEKVTMTCSARSSVSYMYWYQQKPGSSPRLLIYDTSNLASGVPVRFSGSGSGTSYSLTISRMETEDAATYYCQQWSTYPFTFGSGTKLEIK
B4: KCD047 (antibody, V domains shown)
VH: EVQLQQSGAEFVKPGASVRLSCTASGFNIKDTYMHWVKQRPEQGLEWIGRIDPANGYTKDDPKFQGKATITADTSSNTAYLQLSSLTSEDTAVYYCASAMDYWGQGTSVTVSS
VL: B3 VL with E9A, I10V, T20A, R26S, S30T, T79A, T96P
B5: KCD040 (antibody, V domains shown)
VH: EVQLQQSGAELVKPGASVKLSCTASDFNIKDTYMHWVMQRPEQGLEWIGKIDPANGNTEFDPKFQGKATITADTSSNTAYLQLTSLTSEDTAVYYCTRAMDYWGQGTSVTVSS
VL: B3 VL with E9A, R26G, L45V, T79A, T92N, F95Y, S99G
B6: KCD013 (antibody, V domains shown)
VH: B4 VH with F11L, R19K, N28K, Q39E, E42D, Y57N, D60Y, S98N
VL: B3 VL with V3I, E9A, R26S, Y31N, T68A, T79A, T92S, F95W, S99G
B7: KCD018 (antibody, V domains shown)
VH: QVQLQQSAAELARPGASVKMSCKASGYTFTSYTVHWVKQRPGQGLEWIGYINPSSGFTDYNQKFKDKTTLTADISSSTAYIQLSSLTSEDSAVYYCARRGVNWSWFAYWGQGTLVTVSA
VL: NIMMTQSPSSLAVSAGEKVTMSCKSSQSVLYSSNQKNYLAWYQQKPGQSPQLLIYWASTRESGVPERFTGSGSGTDFTLTISSVQAEDLAVYYCHQYLSSWTFGGGTKLEIK
B8: KCD230 (antibody, V domains shown)
VH: QVQLQQPGTELVKPGASVKLPCKASGYTFTSYWMQWVKQRPGQGLEWIGEIDPSDTYINYNQKFKGKATLTVDTSSTTAYMQLSSLTSEDSAVYYCARYTTIMASDYWGQGTTLTVSS
VL: DIQMTQTTSSLSVSLGDRVTISCRASQDITNYLNWYQQKPDGTVKLLIYFTSRLHSGVPSRFSGSGSGTDYSLTISNLEPEDIATYYCQQYSKLPWTFGGGTKLEIK
B9: KCD224 (antibody, V domains shown)
VH: QVQLKESGPGLVAPSQSLSITCTVSGFSLTSYGVDWIRQSPGKGLEWLGVIWGVGSTNYNSALKSRLSISKDNSKSQVFLKMNSLQTDDTAMYYCARSYDGSYWYFDVWGTGTTVTVSS
VL: B8 VL with V13A, D28V, T30S, F50Y, W96Y, G100S
B10: KCD038 (antibody, V domains shown)
VH: EVQLQQSGPELVKPGTSMKISCKASGYSFADYTMNWVKQSHGKSLEWIGLINPYNGGTSYNQKFMGKATLTVDKSSSTAYMELLSLTSEDSAVYYCARWGTYSHNYDYAMDYWGQGTSVTVSS
VL: DVVMTQTPLSLPVSLGDQASISCRSSQSLVHSNGNTYLYWYFQKPGQSPKFLIYKVSNRFSGISDRFSGSGSGTDFTLKISRVEAEDLGVYFCSQSTHVPPFTFGSGTKLEIK
B11: KCD039 (antibody, V domains shown)
VH: B10 VH with L11M, T16A, M34L, A97T
VL: B10 VL with P12S, F42L, F51L, S64T
B12: KCD139 (antibody, V domains shown)
VH: EVQLQQSGAELVRPGSSVKMSCKTSGYTFTSYGINWVKQRPGQGLEWIGYIYIANGYTENNEKFKGKAKLTSDISSSTAYMQLSSLTSEDSAIYFCARRFDYAGALDYWGQGTSVTVSS
VL: DIVLTQSPASLAVSLGQRATISCRASESVDSYGNSFMHWYQQKPGQPPKLLIHRASNLESGIPARFSGSGSRTDFTLTINPVEADDVAIYYCQQTNDDPYTFGGGTNLEIK
B13: KCD030 (antibody, V domains shown)
VH: QVQLQQSGAELAKPGASVKMSCKASGYTFTNYWMHWVKQRPGQGLEWIGYINPSIGYTEYNQKFKDKATLTADKSSSTAYMQLSSLTSEDSAVFYCATFIYYAMDYWGQGTSVTVSS
VL: DIQMNQSPSSLSASLGDTITITCHASQNINVWLSWYQQKPGNIPKLLIYKASNLHTGVPSRFSGSGSGTGFTLTISSLQPEDIATYYCQQGQSYPYTFGGGTKLEIK
B14: KCD066 (antibody, V domains shown)
VH: QVQLQQSAAELARPGASVKMSCKASGYTFTDYTMHWVKQRPGQGLEWIGYINPSGGYTDYNQKFKDKTALTADKSSSTAYMQLSSLTSEDSAVYYCARRRDYWFAYWGQGTLVTVSA
VL: DIVMSQSPSSLAVSVGEKVTMSCKSSQSLLYSGNQKNYLAWYQQKPGQSPKLLIYWASTRESGVPDRFTGSGSGTDFTLTISSVKAEDLAVYYCHQYYSYLTFGAGTKLELK
B15: KCD135 (antibody, V domains shown)
VH: EVQLQQSGPELVKPGASVRMSCKASGYIFTDYSIHWVKQSHGKSLEWIGYINPNNGGTSYNQKFKGKATLTVNKSSTTAYMELRSLTSEDSAVYFCARDTTIVGDYWGQGTTLTVSS
VL: DIVMTQSQKFMSTSVGDRVSVTCKASQHVGTNVVWYQQKPGQSPKALIYSASYRYSGVPDRFSGSGSGTDFTLTISNVQSEDLAEYFCQQFNSYPLTFGGGTKLEIK
B16: KCD075 (antibody, V domains shown)
VH: QVQLLQPGAELVRPGTSVKLSCKASGYTFSNYWINWVKQRPGQGLEWIGNIYPSDSSINYNQKFKDKATLTVDKSSTTAYMQLSSPTSEDSAVYYCTGTDWYFDVWGAGTTVTVSS
VL: DIQMTQTTSSLSASLGDRVTISCSGGQGISNYLNWYQQKPDGTFKLLIYYTSTLHSGVPSRFSGSGSGTDYSLTISNLEPEDVATYYCQQYSKLPYTFGGGTKLEIK
B17: KCD065 (antibody, V domains shown)
VH: QVQLQQSGAELARPGASVKMSCKASGYTFTTYTIHWVKQRPGQGLEWIGYINPSSDFTNYNQNFADKATLTADRSSSTAYMQLSSLTSEESAVYYCAIRLGYDRQGWYFDVWGAGTTVTVSS
VL: DIVMTQSHKFLSTSLGDRVSITCKASQDVGSAVAWYQQKPGQSPDLLIYWTFTRHTGVPDRFTGSRSGTDFTLTISNVQSGDLADYFCQQYSNYPLTFGGGTKLEIK
B18: KCD004 (antibody, V domains shown)
VH: EVQLQQSGAELVRPGSSVKMSCKTSGKTFTSHGINWVKQRPGQGLEWIGYIYIGNGYNEYNEKFKGKATLTSDTSSSTAYMQLSSLTFEDSAIYFCVRKAYGNYGFDDWGQGTTLTVSS
VL: DIQMTQSPTSLSASLGESVSLTCRASQEISGYLNWLQQKPDGSIKRLIYAASTLDSGVPKRFSGSRSGSDYSLTISSLESEDFADYYCLQYANYPFTFGSGTKLEVK
notes: also called OG2063
B19: KCD126 (antibody, V domains shown)
VH: B18 VH
VL: B18 VL with Y32N
B20: KCD205 (antibody, V domains shown)
VH: B18 VH with K27N, F88S
VL: B18 VL with T9S, S18R, N34S, S43T, R66S, E81D, N93S, V106I
B21: KCD125 (antibody, V domains shown)
VH: B18 VH with K27N, H32Y, N55T, N58T, F88S, D108Y
VL: B18 VL with T9S, S18R, N34S, S43T, N93S, V106I
B22: KCD208 (antibody, V domains shown)
VH: EVQLQQSVAELVRPGASVKLSCTVSGFNIKNTYMHWVKQRPEQGLEWIGRIDPANGDTTYAPKFQGKATITADTSSNSAYLHLSRLTSEDTAIYYCSLYDYDGYWGQGTTLTVSS
VL: EIVLTQSPALMAASPGEKVTITCSVSSSISSSSLHWYRQKSGTSPKPWIYGTSHLASGVPVRFSGSGSGTSYSLTISSMEAEDAATYYCQQWDTYPWTFGGGTKLEIK
B23: KCD133 (antibody, V domains shown)
VH: EVQLVESGGGLLQPKGSLKLSCAASGFTFNTYAMNWVRQAPGKGLEWVARIRSKSSNYATYYADSVKDRFTISRDDSQSMFYLEMNNLKTEDTAMYYCVRDRGYYYVMDYWGQGTSVTVSS
VL: DIVLTQSPASLAVSLGQRATISCRASESVEYYGTSLMQWYQQKPGQPPKLLINAASNVESGVPARFSGSGSGTDFSLNIHPVEEDDIAMYFCQQSRKVPWTFGGGTKLEIK
B24: KCD050 (antibody, V domains shown)
VH: QVQLKESGPGLVAPSQSLSITCTVSGFSLNSYGVQWVRQPPGQGLEWLVVIWRDGTITYNSALKSRLSINKDNSKSQVFLKMNSLQTDDTAMYYCGRTSHYGNFNYYVMDYWGQGTAVTVSS
VL: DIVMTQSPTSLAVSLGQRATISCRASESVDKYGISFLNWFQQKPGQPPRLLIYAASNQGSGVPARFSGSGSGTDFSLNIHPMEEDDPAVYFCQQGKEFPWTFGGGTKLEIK
B25: KCD052 (antibody, V domains shown)
VH: B24 VH with V49G, T56S, N70R, F104Y
VL: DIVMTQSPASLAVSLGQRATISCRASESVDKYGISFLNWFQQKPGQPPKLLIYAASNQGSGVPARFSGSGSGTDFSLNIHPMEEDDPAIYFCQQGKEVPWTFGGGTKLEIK
B26: KCD210 (antibody, V domains shown)
VH: EVQLQQSGPVLVKPGASVTMSCKASGYTFTEYYMNWVKQSHGKSLDWIGVINPYSGGTSYKQKFKDKATLTVDKSSSTAYMELNGLTSEDSAVYFCVRGGLRRNYFDYWGQGTTLTVSS
VL: EIVLTQSPALMTASPGEKVTITCSVSSSISSTNLHWYQQKSGTSPKPWIFGTSNLASGVPVRFSGSGSGTSYSLTISNMEAEDAATYYCQQWNSYPFTFGTGTKLEIK

target: T1, human Complement Factor D (CFD), purified from human serum (human, UniProt P00746 26-253); experiment: SPR MX96, mAbs amine-coupled, CFD injected
T1 construct: serum purified (CompTech A136); also called serum purified CFD; hCFD-Comptech
T1 sequence (P00746 26-253): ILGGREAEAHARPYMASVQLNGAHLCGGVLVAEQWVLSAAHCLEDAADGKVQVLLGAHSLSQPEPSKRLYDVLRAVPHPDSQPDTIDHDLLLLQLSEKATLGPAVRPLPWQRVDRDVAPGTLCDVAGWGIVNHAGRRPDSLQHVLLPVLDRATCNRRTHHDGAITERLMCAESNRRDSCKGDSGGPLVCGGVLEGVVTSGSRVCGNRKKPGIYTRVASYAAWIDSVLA

Kd [nM]	Binder
8.06	B1
3.83	B2
4.38	B3
4.37	B4
1.93	B5
7.32	B6
40.8	B7
2.48	B8
1.17	B9
37.2	B10
52.5	B11
5.28	B12
4.17	B13
2.88	B14
21.2	B15
3.75	B16
3.28	B17
0.353	B18
0.34	B19
2.98	B20
3.75	B21
2.55	B22
11.5	B23
1.96	B24
3.07	B25
3.52	B26

— patent publication US20180334496A1 (KODIAK SCIENCES, published 2018)
